Reference: the supplement of paper PMC7877785
± gives the uncertainty stated by the source.

Test: self-splicing fitness, log relative to wild type (ln ratio); higher = more splicing; Tetrahymena group I intron in knt gene, E. coli kanamycin selection, DiMSum; sequences stand for … in CUCUCU…GGAGGGAAAAGUUAUCAGGCAUGCACCUGGUAGCUAGUCUUUAAACCAAUAGAUUGCAUCGGUUUAAAAGGCAAGACCGUCAAAUUGCGGGAAAGGGGUCAACAGCCGUUCAGUACCAAGUCUCAGGGGAAACUUUGAGAUGGCCUUGCAAAGGGUAUGGUAAUAAGCUGACGGACAUGGUCCUAACCACGCAGCCAAGUCCUAAGUCAACAGAUCUUCUGUUGAUAUGGAUGCAGUUCACAGACUAAAUGUCGGUCGGGGAAGAUGUAUUCUUCUCAUAAGAUAUAGUCGGACCUCUCCUUAAUGGGAGCUAGCGGAUGAAGUGAUGCAACACUGGAGCCGCUGGGAACUAAUUUGUAUGCGAAAGUAUAUUGAUUAGUUUUGGAGUACUCGUGGUCG
Procedure, shortened: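 The eight P1ex-region nucleotides of an intron in the knt kanamycin-resistance gene on pET-22b(+) were all randomised and the library put into E. coli BL21(DE3). Six replicate transformations were grown overnight at 37°C or 30°C on LB agar with or without 25 μg/mL kanamycin, together with 100 μg/mL carbenicillin, 50 μM IPTG and 0.2% rhamnose. Colonies were pooled and amplicon-sequenced on an Illumina HiSeq 2500. Fitness from DiMSum is the error-weighted combination of wild-type-normalised replicate fold changes, kanamycin over none.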

| Sequence | self-splicing fitness (ln) (30 °C) | self-splicing fitness (ln) (37 °C) |
| --- | --- | --- |
| CUGCAGCAAUAUUACGAAGU | -4.26 ± 0.34 | – |
| AGACAGCAAUAUUACGGUCU | -3.78 ± 0.23 | -2.48 ± 0.25 |
| CCAGAGCAAUAUUACGAGUA | -2.97 ± 0.23 | -3.39 ± 0.28 |
| CCGGAGCAAUAUUACGGUAG | -2.71 ± 0.14 | -2.75 ± 0.21 |
| GAUAAGCAAUAUUACGUCUC | -1.74 ± 0.085 | -0.95 ± 0.1 |
| AGAUAGCAAUAUUACGUCAC | -1.17 ± 0.27 | -2.78 ± 0.48 |
| CGGAAGCAAUAUUACGCCCU | -0.363 ± 0.13 | 0.204 ± 0.15 |
| ACAAAGCAAUAUUACGUGGU | -2.87 ± 0.084 | -2.99 ± 0.12 |
| UAUUAGCAAUAUUACGUCCU | -1.69 ± 0.2 | -0.635 ± 0.21 |
| GAUUAGCAAUAUUACGGCGA | -1.12 ± 0.11 | -0.219 ± 0.11 |
| GCUGAGCAAUAUUACGCCAG | -3.69 ± 0.25 | -2.73 ± 0.41 |
| ACAGAGCAAUAUUACGAGAA | -2.03 ± 0.45 | – |
| UAAAAGCAAUAUUACGAGGU | -4.31 ± 0.3 | -1.59 ± 0.17 |
| CACUAGCAAUAUUACGGAUA | -2.41 ± 0.28 | -2.22 ± 0.28 |
| UCAGAGCAAUAUUACGAUUC | – | -1.19 ± 0.41 |
| GAAUAGCAAUAUUACGUAAC | -0.941 ± 0.11 | -1.63 ± 0.12 |
| UCAAAGCAAUAUUACGCAAC | -4.31 ± 0.42 | – |
| GCAGAGCAAUAUUACGGUCG | -3.23 ± 0.12 | -1.44 ± 0.1 |
| ACGCAGCAAUAUUACGCAAA | -2.51 ± 0.13 | -1.77 ± 0.14 |
| CGCCAGCAAUAUUACGUCCG | -0.462 ± 0.1 | -0.546 ± 0.12 |
| AUUGAGCAAUAUUACGCUAU | -3.5 ± 0.44 | -2.12 ± 0.42 |
| CGCGAGCAAUAUUACGCGGU | -3.56 ± 0.3 | -2.79 ± 0.18 |
| CGCCAGCAAUAUUACGGGUA | -0.998 ± 0.064 | -0.377 ± 0.069 |
| CGCCAGCAAUAUUACGAAGG | -1.36 ± 0.11 | -1.9 ± 0.16 |
| AGGCAGCAAUAUUACGGAGC | -3.51 ± 0.14 | -3.32 ± 0.26 |

| Sequence | self-splicing fitness (ln) (30 °C) | self-splicing fitness (ln) (37 °C) |
| --- | --- | --- |
| AUAAAGCAAUAUUACGAUGG | -2.15 ± 0.13 | -1.03 ± 0.18 |
| CUCCAGCAAUAUUACGCAAG | -3.52 ± 0.26 | -1.41 ± 0.18 |
| CCACAGCAAUAUUACGGCAG | -1.16 ± 0.072 | -0.579 ± 0.085 |
| AAGUAGCAAUAUUACGAAGG | -2.75 ± 0.24 | -3.26 ± 0.47 |
| GCAUAGCAAUAUUACGAUGC | -2.72 ± 0.28 | – |
| UCUCAGCAAUAUUACGUUCA | -2.49 ± 0.14 | -1.15 ± 0.14 |
| CGAGAGCAAUAUUACGCUCU | -3.65 ± 0.27 | -2.62 ± 0.3 |
| GCCCAGCAAUAUUACGUCGA | -1.5 ± 0.082 | -1.09 ± 0.086 |
| GCAGAGCAAUAUUACGCUAC | – | -1.68 ± 0.32 |
| ACUCAGCAAUAUUACGGCCA | -1.28 ± 0.13 | -0.0774 ± 0.16 |
| CAACAGCAAUAUUACGUUGA | -3.22 ± 0.12 | -3.19 ± 0.15 |
| UGGAAGCAAUAUUACGAGCU | -1.95 ± 0.16 | -0.801 ± 0.15 |
| UUUAAGCAAUAUUACGAGUA | -1.72 ± 0.19 | -1.06 ± 0.19 |
| GUGAAGCAAUAUUACGGUCC | -0.351 ± 0.15 | -0.0265 ± 0.18 |
| AAAAAGCAAUAUUACGAUCG | -0.0337 ± 0.054 | 0.0375 ± 0.068 |
| UAUCAGCAAUAUUACGACUU | -0.502 ± 0.067 | -0.0466 ± 0.074 |
| UGAGAGCAAUAUUACGAGCG | -1.84 ± 0.24 | -1.81 ± 0.31 |
| CUUGAGCAAUAUUACGUUAG | -3.13 ± 0.2 | -1.11 ± 0.15 |
| AAUCAGCAAUAUUACGGUGU | 0.0362 ± 0.059 | 0.393 ± 0.072 |
| CGAUAGCAAUAUUACGUCUU | -1.49 ± 0.13 | -0.12 ± 0.13 |
| CUAAAGCAAUAUUACGGUAG | -0.409 ± 0.043 | -0.0448 ± 0.059 |
| GUCCAGCAAUAUUACGGGUG | -0.386 ± 0.052 | 0.0761 ± 0.067 |
| GUACAGCAAUAUUACGGGCU | -3.98 ± 0.3 | -2.1 ± 0.21 |
| ACAUAGCAAUAUUACGGUUC | -2.93 ± 0.17 | -2.51 ± 0.24 |
| CAUUAGCAAUAUUACGGAUU | -3.12 ± 0.2 | -1.23 ± 0.21 |

| Sequence | self-splicing fitness (ln) (30 °C) | self-splicing fitness (ln) (37 °C) |
| --- | --- | --- |
| GCUCAGCAAUAUUACGACUG | -2.66 ± 0.35 | 0.178 ± 0.19 |
| AAUUAGCAAUAUUACGAAUC | -2.34 ± 0.16 | -0.829 ± 0.16 |
| UGCGAGCAAUAUUACGAACA | -1.47 ± 0.14 | 0.122 ± 0.18 |
| GGGCAGCAAUAUUACGUAAC | -1.94 ± 0.18 | -0.668 ± 0.2 |
| GUUUAGCAAUAUUACGUGUG | -2.08 ± 0.11 | -1.36 ± 0.11 |
| AACGAGCAAUAUUACGACCU | -1.02 ± 0.22 | -0.178 ± 0.2 |
| GAGGAGCAAUAUUACGCUAC | -3.94 ± 0.37 | -2.66 ± 0.33 |
| GGACAGCAAUAUUACGGUUG | -1.41 ± 0.067 | -0.752 ± 0.083 |
| CAACAGCAAUAUUACGGACG | -0.191 ± 0.063 | 0.505 ± 0.082 |
| GCUUAGCAAUAUUACGUCAA | -2.67 ± 0.26 | -1.66 ± 0.2 |
| CUCAAGCAAUAUUACGGAUC | -3.98 ± 0.43 | -2.19 ± 0.27 |
| UCUCAGCAAUAUUACGUCUA | -2.95 ± 0.28 | -1.38 ± 0.15 |
| CUUGAGCAAUAUUACGGUCC | -0.924 ± 0.28 | – |
| ACCUAGCAAUAUUACGAGGA | -2.16 ± 0.12 | -0.9 ± 0.12 |
| CCCAAGCAAUAUUACGUAAG | -3.05 ± 0.19 | -1.87 ± 0.16 |
| GAUGAGCAAUAUUACGAGCA | -2.59 ± 0.37 | – |
| AAGAAGCAAUAUUACGGACC | -1.28 ± 0.13 | -0.312 ± 0.18 |
| AGAGAGCAAUAUUACGGGAG | -2.6 ± 0.4 | – |
| GGUGAGCAAUAUUACGAGUC | -1.67 ± 0.24 | -1.83 ± 0.37 |
| CUUGAGCAAUAUUACGGGGA | -3.27 ± 0.2 | -2.87 ± 0.28 |
| AUUCAGCAAUAUUACGUGAC | -3.05 ± 0.44 | -1.84 ± 0.35 |
| CAACAGCAAUAUUACGGUGC | -3.12 ± 0.12 | -2.8 ± 0.16 |
| GAGCAGCAAUAUUACGGAAA | -3.08 ± 0.24 | -2.84 ± 0.21 |
| UGUAAGCAAUAUUACGGGCG | 0.00753 ± 0.092 | 0.237 ± 0.11 |
| GGGCAGCAAUAUUACGAGAG | -4.06 ± 0.17 | -2.82 ± 0.16 |

| Sequence | self-splicing fitness (ln) (30 °C) | self-splicing fitness (ln) (37 °C) |
| --- | --- | --- |
| CUCAAGCAAUAUUACGUAGU | -3.43 ± 0.17 | -1.91 ± 0.14 |
| CAAUAGCAAUAUUACGGCGA | -3.93 ± 0.4 | -2.03 ± 0.24 |
| CUAAAGCAAUAUUACGAAUG | 0.281 ± 0.067 | 0.497 ± 0.088 |
| AUCCAGCAAUAUUACGACGU | -0.176 ± 0.057 | 0.696 ± 0.081 |
| CGCUAGCAAUAUUACGUUCC | -2.83 ± 0.15 | -2.81 ± 0.31 |
| UCCAAGCAAUAUUACGUUUU | -4 ± 0.13 | -2.91 ± 0.14 |
| AUGUAGCAAUAUUACGGCUA | -2.45 ± 0.22 | -2.14 ± 0.25 |
| GUGUAGCAAUAUUACGGAAG | -1.96 ± 0.19 | -0.206 ± 0.19 |
| AGUAAGCAAUAUUACGCCUA | -0.00931 ± 0.12 | 0.208 ± 0.12 |
| ACAUAGCAAUAUUACGGAAA | -2.14 ± 0.26 | -2.11 ± 0.2 |
| ACCUAGCAAUAUUACGAUGC | -1.22 ± 0.078 | -0.172 ± 0.081 |
| AUACAGCAAUAUUACGGAUG | -2.7 ± 0.2 | -2.05 ± 0.14 |
| UCAGAGCAAUAUUACGCACG | -3.39 ± 0.29 | -1.37 ± 0.21 |
| AAACAGCAAUAUUACGCACG | -1.45 ± 0.099 | -0.888 ± 0.11 |
| CGCCAGCAAUAUUACGUUAU | -3.32 ± 0.16 | -2.22 ± 0.18 |
| UCAGAGCAAUAUUACGGCAU | -3.07 ± 0.33 | -1.87 ± 0.29 |
| UCGAAGCAAUAUUACGGUGA | -0.813 ± 0.077 | 0.158 ± 0.091 |
| AGUAAGCAAUAUUACGCUAC | -0.918 ± 0.3 | – |
| UAGGAGCAAUAUUACGUAAG | -3.22 ± 0.16 | -2.01 ± 0.16 |
| CCACAGCAAUAUUACGUCCU | -3.44 ± 0.27 | -1.76 ± 0.19 |
| AGCCAGCAAUAUUACGUUGU | -3.58 ± 0.21 | -2.01 ± 0.15 |
| CUCAAGCAAUAUUACGAUUU | -3.68 ± 0.21 | -2.4 ± 0.25 |
| UCAAAGCAAUAUUACGAGCG | -0.712 ± 0.088 | -0.172 ± 0.11 |
